Results as given in PMC3374753.
Like-named read-outs stand apart in the source and are kept apart here.

How the values were obtained:
[1] = biological target: retromer cargo-selective complex (CSC), trimer of VPS35, VPS29 and VPS26 (UniProt Q96QK1); assay: ITC
[2] = biological target: retromer cargo-selective complex (CSC), trimer of VPS35, VPS29 and VPS26 (UniProt Q96QK1); assay: ITC; remark: listed apart in the source

## FC fragment of FAM21 (938-1341 without 1029-1047) as used in ITC (domain or fragment)
[1]
  Kd: 2.4 µM
  stoichiometry N: 0.42

## FN fragment of FAM21 (356-600) as used in ITC (domain or fragment)
[1]
  Kd: 11.5 µM
  stoichiometry N: 0.32

## R19-20 for ITC (FAM21 1250-1317, Trp, His6) (domain or fragment)
[1]
  Kd: 6.8 µM
  stoichiometry N: 0.39

## R20-21 for ITC (FAM21 1278-1341, Trp, His6) (domain or fragment)
[2]
  Kd: 3.2 µM
[1]
  Kd: 2.5 to 16.6 µM
  Kd of the second site (two-site model, one site fixed to 16.6 μM): 3 µM
  stoichiometry N: 0.49

## R21 for ITC (FAM21 1309-1341, Trp, His6) (domain or fragment)
[1]
  Kd: 16.6 µM
  stoichiometry N: 0.82
